We go through two substances from article PMC7393355, “A FRET-based screening method to detect potential inhibitors of the binding of CNNM3 to PRL2” (Scientific Reports, 2020).

Broadly, the Kd is a measure of binding affinity in units of concentration.

In one experiment the target is PRL3 (Homo sapiens) (UniProt O75365). The settings on record: cited from earlier work.
The target in experiment [1] is CNNM3 CBS domain (residues 301-452) with YPet at its C-terminus (UniProt Q8NE01). Briefly: FRET competition (inhibition) assay. Particulars: CNNM3-YPet 200 nM, CyPet-PRL2 200 nM, pre-incubation 20 min at R.T., control without competitor est. 98%, n = 6, read off a plot.
Chain of CNNM3 CBS domain (residues 301-452) with YPet at its C-terminus (Q8NE01 301-452): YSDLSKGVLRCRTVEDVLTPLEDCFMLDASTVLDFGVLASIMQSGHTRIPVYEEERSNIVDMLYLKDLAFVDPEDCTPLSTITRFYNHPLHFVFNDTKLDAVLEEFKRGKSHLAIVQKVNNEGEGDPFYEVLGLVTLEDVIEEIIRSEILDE

Chain of non-fluorescence protein-tagged PRL2 (Q12974 whole entry, stated change not applied): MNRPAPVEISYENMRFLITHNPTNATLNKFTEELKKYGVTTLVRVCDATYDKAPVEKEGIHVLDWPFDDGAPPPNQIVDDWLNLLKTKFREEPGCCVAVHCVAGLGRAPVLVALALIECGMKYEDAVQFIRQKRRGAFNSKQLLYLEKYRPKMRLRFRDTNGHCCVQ
Chain of CNNM3 (Q8NE01 whole entry): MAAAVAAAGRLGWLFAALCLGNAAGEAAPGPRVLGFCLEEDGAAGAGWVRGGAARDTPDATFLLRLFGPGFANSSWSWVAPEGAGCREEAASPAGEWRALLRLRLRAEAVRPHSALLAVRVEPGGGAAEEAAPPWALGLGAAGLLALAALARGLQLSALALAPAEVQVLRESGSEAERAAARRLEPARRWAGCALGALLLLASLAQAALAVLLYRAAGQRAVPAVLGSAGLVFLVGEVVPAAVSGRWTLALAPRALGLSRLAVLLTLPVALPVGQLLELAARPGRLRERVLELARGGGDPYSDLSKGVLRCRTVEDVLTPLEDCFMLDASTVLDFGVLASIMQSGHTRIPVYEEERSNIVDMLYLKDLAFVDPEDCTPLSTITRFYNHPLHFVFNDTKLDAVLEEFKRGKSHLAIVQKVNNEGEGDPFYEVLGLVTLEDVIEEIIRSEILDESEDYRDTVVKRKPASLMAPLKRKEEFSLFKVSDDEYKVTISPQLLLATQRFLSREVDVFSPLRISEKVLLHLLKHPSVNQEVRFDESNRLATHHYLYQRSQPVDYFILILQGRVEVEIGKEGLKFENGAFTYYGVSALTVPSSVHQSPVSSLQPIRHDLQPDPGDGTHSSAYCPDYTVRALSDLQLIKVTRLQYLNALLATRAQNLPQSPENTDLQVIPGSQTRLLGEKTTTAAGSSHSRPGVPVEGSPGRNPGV
Chain of PRL3 (Homo sapiens) (O75365 1-170 C104E): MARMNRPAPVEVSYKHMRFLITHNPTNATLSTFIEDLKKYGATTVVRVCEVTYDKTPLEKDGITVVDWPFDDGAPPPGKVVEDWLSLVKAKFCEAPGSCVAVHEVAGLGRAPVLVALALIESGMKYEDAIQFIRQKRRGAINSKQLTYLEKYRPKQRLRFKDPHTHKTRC

Regarding CNNM3 (from UniProt Q8NE01), in the experiment with PRL3 (Homo sapiens), the dissociation constant Kd is 2800 nM.

On to “non-fluorescence protein-tagged PRL2 (from UniProt Q12974-1) C107E”, for which the response worked out at 97% in experiment [1] (1 µM untagged competitor, parent: est. 15) and 76% in experiment [1] (10 µM untagged competitor, parent: est. 11).
